Test results from US20220281949A1.

How the values were obtained:
[1] = target: DR1-restricted TCR HA1.7; test: flow cytometry: HA1.7-transduced primary CD4+ T cells stained with PE DR1 dimer and anti-CD4
[2] = target: DR1-restricted TCR HA1.7; test: as above; remark: listed apart in the source
[3] = target: DR1-restricted TCR HA1.7; test: flow cytometry: TCR-transduced primary human T cells stained with PE class II dimer and anti-CD4

Row | Substance | percent of cells in the dimer+ CD4+ quadrant [1] [%] | percent of cells in the dimer+ CD4+ quadrant [2] [%] | percent of cells in the dimer+ CD4+ quadrant [3] [%]
1 | DR1^L114W/V143M dimer with the cognate peptide of TCR HA1.7 (peptide-MHC) | 1.5 |  | 
2 | DR1^L114W/V143M+2reps dimer specific to Flu-HA306-318 (peptide-MHC) | 48.9 | 53 | 9.1
